Measured values: PMC4510650, “TD-60 links RalA GTPase function to the CPC in mitosis” (Nature Communications, 2015)

Target: T1, human TD-60 with an amino-terminal streptavidin-binding protein (SBP) tag (human, UniProt Q9P258 1-522)
T1 construct: TD-60 (RCC2), human; cDNA codon optimized and made synthetically; The far-western sentence says only 'purified TD-60'; The GEF assay names it 'SBP-tagged recombinant TD-60'; far-western methods are in the Supplementary Methods; also called SBP-TD-60; RCC2; source: Sf9 cells (baculovirus, pFastBacI), purified
Test: far-Western; purified RalA or purified Ran tested on purified TD-60; details only in the Supplementary Methods
Settings: both partners purified

T1 sequence (Q9P258 whole entry): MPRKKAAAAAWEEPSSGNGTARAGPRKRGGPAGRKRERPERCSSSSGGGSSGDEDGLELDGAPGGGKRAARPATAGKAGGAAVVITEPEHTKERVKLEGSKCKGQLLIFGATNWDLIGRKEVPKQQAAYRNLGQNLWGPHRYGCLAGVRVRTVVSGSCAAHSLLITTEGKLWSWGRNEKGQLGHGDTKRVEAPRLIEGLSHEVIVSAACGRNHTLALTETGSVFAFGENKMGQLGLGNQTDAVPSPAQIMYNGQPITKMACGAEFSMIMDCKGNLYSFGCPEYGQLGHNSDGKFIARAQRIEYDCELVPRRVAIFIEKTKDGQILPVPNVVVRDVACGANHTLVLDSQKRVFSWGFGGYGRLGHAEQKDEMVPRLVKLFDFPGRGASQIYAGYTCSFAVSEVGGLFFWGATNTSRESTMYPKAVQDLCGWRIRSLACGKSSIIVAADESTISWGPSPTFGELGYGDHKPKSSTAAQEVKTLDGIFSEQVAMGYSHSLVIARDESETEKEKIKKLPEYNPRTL

B1: purified human RalA (cloned into pFAT2) (natural protein, UniProt P11233 1-206, looked up)
chain: MAANKPKGQNSLALHKVIMVGSGGVGKSALTLQFMYDEFVEDYEPTKADSYRKKVVLDGEEVQIDILDTAGQEDYAAIRDNYFRSGEGFLCVFSITEMESFAATADFREQILRVKEDENVPFLLVGNKSDLEDKRQVSVEEAKNRAEQWNVNYVETSAKTRANVDKVFFDLMREIRARKMEDSKEKNGKKKRKSLAKRIRERCCIL
notes: RalA, human; The RalA of the GEF assay is called GST-tagged; also called Ras-related protein RalA; source: purified; cloned into pFAT2
B1: binds.
